Laboratory results: the supplement of paper PMC10567573

B1: FAM164C (parent)
chain: YPHCTGISQQDPESDSQGQGNGLF

Variants of: B1
Experiment: protein stability index of a GFP-peptide fusion (GPS, HEK-293T) (PSI 1-6); higher = more stable
Details: c terminus: a fixed tail appended
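Note: lentivirally expressed fusions sorted by FACS into six bins by GFP to DsRed ratio, PSI derived from sequencing read proportions per bin multiplied by bin number.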

Going from YPHCTGISQQDPESDSQVQGNGLF [G18V] to YPHCTGISQQDPESDSQGQKNGLF [G20K], the protein stability index rises from 3.32 to 3.66.

Compared with YPHCTGISQQDPESDSQGQHNGLF [G20H], YPHCTGISQQDPESDSQGQSNGLF [G20S] is higher in protein stability index: 3.08 for the first, 3.79 for the second.

First: YPHCTGISQQDPESDSQGQENGLF [G20E]
Second: YPHCTGISQQDPESDSQGQPNGLF [G20P]
The protein stability index of the first is higher: 4.33 for the first, 3.59 for the second.

First: YPHCTGISQQDPESDSQGQRNGLF [G20R]
Second: YPHCTGISQQDPESDSQGQCNGLF [G20C]
The protein stability index of the first is higher: 3.65 for the first, 3.57 for the second.

Compared with YPHCTGISQQDPESDSQGQANGLF [G20A], YPHCTGISQQDPESDSQGQLNGLF [G20L] is lower in protein stability index: 3.12 for the first, 3.11 for the second.

Compared with YPHCTGISQQDPESDSQGQQNGLF [G20Q], YPHCTGISQQDPESDSQGQMNGLF [G20M] is higher in protein stability index: 3.79 for the first, 3.9 for the second.

Going from YPHCTGISQQDPESDSQGQDNGLF [G20D] to YPHCTGISQQDPESDSQGQFNGLF [G20F], the protein stability index falls from 4.39 to 2.56.

Going from YPHCTGISQQDPESDSQGQINGLF [G20I] to YPHCTGISQQDPESDSQGQNNGLF [G20N], the protein stability index rises from 3.02 to 3.48.

Compared with YPHCTGISQQDPESDSQGQWNGLF [G20W], YPHCTGISQQDPESDSQGQTNGLF [G20T] is higher in protein stability index: 2.35 for the first, 3.33 for the second.

First: YPHCTGISQQDPESDSQGQYNGLF [G20Y]
Second: YPHCTGISQQDPESDSQGQVNGLF [G20V]
The protein stability index of the first is lower: 2.03 for the first, 3.44 for the second.

First: YPHCTGISQQDPYSDSQGQGNGLF [E13Y]
Second: YPHCTGISQQDPQSDSQGQGNGLF [E13Q]
The protein stability index of the first is lower: 2.97 for the first, 3.31 for the second.

First: YPHCTGISQQDPWSDSQGQGNGLF [E13W]
Second: YPHCTGISQQDPVSDSQGQGNGLF [E13V]
The protein stability index of the first is lower: 1.9 for the first, 3.66 for the second.

Compared with YPHCTGISQQDPSSDSQGQGNGLF [E13S], YPHCTGISQQDPRSDSQGQGNGLF [E13R] is lower in protein stability index: 3.08 for the first, 2.93 for the second.

Going from YPHCTGISQQDPTSDSQGQGNGLF [E13T] to YPHCTGISQQDPESDSQGTGNGLF [Q19T], the protein stability index rises from 3.15 to 3.81.

First: YPHCTGISQQDPESDSQGKGNGLF [Q19K]
Second: YPHCTGISQQDPESDSQGLGNGLF [Q19L]
The protein stability index of the first is higher: 3.85 for the first, 3.3 for the second.

Compared with YPHCTGISQQDPESDSQGFGNGLF [Q19F], YPHCTGISQQDPESDSQGVGNGLF [Q19V] is higher in protein stability index: 2.88 for the first, 3.52 for the second.

Compared with YPHCTGISQQDPESDSQGHGNGLF [Q19H], YPHCTGISQQDPESDSQGMGNGLF [Q19M] is lower in protein stability index: 3.64 for the first, 3.22 for the second.

Compared with YPHCTGISQQDPESDSQGRGNGLF [Q19R], YPHCTGISQQDPESDSQGDGNGLF [Q19D] is higher in protein stability index: 3.51 for the first, 4.1 for the second.

Going from YPHCTGISQQDPESDSQGSGNGLF [Q19S] to YPHCTGISQQDPESDSQGNGNGLF [Q19N], the protein stability index falls from 3.9 to 3.66.

Compared with YPHCTGISQQDPESDSQGEGNGLF [Q19E], YPHCTGISQQDPESDSQGWGNGLF [Q19W] is lower in protein stability index: 4.21 for the first, 2.75 for the second.

First: YPHCTGISQQDPESDSQGGGNGLF [Q19G]
Second: YPHCTGISQQDPESDSQGPGNGLF [Q19P]
The protein stability index of the first is higher: 4.21 for the first, 3.86 for the second.

Going from YPHCTGISQQDPESDSQGAGNGLF [Q19A] to YPHCTGISQQDPESDSQGIGNGLF [Q19I], the protein stability index falls from 3.87 to 3.26.

First: YPHCTGISQQDPESDSQGCGNGLF [Q19C]
Second: YPHCTGISQQDPESDSQGYGNGLF [Q19Y]
The protein stability index of the first is lower: 3.24 for the first, 3.36 for the second.

Going from YPHCTGISQQDPEADSQGQGNGLF [S14A] to YPHCTGISQQDPECDSQGQGNGLF [S14C], the protein stability index falls from 3.86 to 3.54.

First: YPHCTGISQQDPEPDSQGQGNGLF [S14P]
Second: YPHCTGISQQDPEDDSQGQGNGLF [S14D]
The protein stability index of the first is higher: 4.28 for the first, 4.2 for the second.

First: YPHCTGISQQDPEQDSQGQGNGLF [S14Q]
Second: YPHCTGISQQDPELDSQGQGNGLF [S14L]
The protein stability index of the first is higher: 3.93 for the first, 3.77 for the second.

Compared with YPHCTGISQQDPEMDSQGQGNGLF [S14M], YPHCTGISQQDPEEDSQGQGNGLF [S14E] is higher in protein stability index: 3.4 for the first, 3.84 for the second.

First: YPHCTGISQQDPEVDSQGQGNGLF [S14V]
Second: YPHCTGISQQDPEKDSQGQGNGLF [S14K]
The protein stability index of the first is higher: 4.3 for the first, 4.23 for the second.

Compared with YPHCTGISQQDPEGDSQGQGNGLF [S14G], YPHCTGISQQDPEFDSQGQGNGLF [S14F] is lower in protein stability index: 3.74 for the first, 2.73 for the second.

Going from YPHCTGISQQDPEYDSQGQGNGLF [S14Y] to YPHCTGISQQDPEHDSQGQGNGLF [S14H], the protein stability index rises from 3.27 to 3.73.

Compared with YPHCTGISQQDPEWDSQGQGNGLF [S14W], YPHCTGISQQDPETDSQGQGNGLF [S14T] is higher in protein stability index: 3.13 for the first, 3.71 for the second.

First: YPHCTGISQQDPERDSQGQGNGLF [S14R]
Second: YPHCTGISQQDPEIDSQGQGNGLF [S14I]
The protein stability index of the first is higher: 3.79 for the first, 3.25 for the second.

Going from YPHCTGISQQDPENDSQGQGNGLF [S14N] to YPHCTGISQQDPESDSPGQGNGLF [Q17P], the protein stability index falls from 3.89 to 3.6.

Compared with YPHCTGISQQDPESDSEGQGNGLF [Q17E], YPHCTGISQQDPESDSTGQGNGLF [Q17T] is lower in protein stability index: 4.4 for the first, 3.64 for the second.

Compared with YPHCTGISQQDPESDSYGQGNGLF [Q17Y], YPHCTGISQQDPESDSKGQGNGLF [Q17K] is higher in protein stability index: 3.02 for the first, 3.51 for the second.

Going from YPHCTGISQQDPESDSMGQGNGLF [Q17M] to YPHCTGISQQDPESDSNGQGNGLF [Q17N], the protein stability index rises from 3.8 to 4.14.

First: YPHCTGISQQDPESDSGGQGNGLF [Q17G]
Second: YPHCTGISQQDPESDSFGQGNGLF [Q17F]
The protein stability index of the first is higher: 3.74 for the first, 2.81 for the second.

Compared with YPHCTGISQQDPESDSSGQGNGLF [Q17S], YPHCTGISQQDPESDSDGQGNGLF [Q17D] is lower in protein stability index: 3.79 for the first, 3.26 for the second.

First: YPHCTGISQQDPESDSHGQGNGLF [Q17H]
Second: YPHCTGISQQDPESDSVGQGNGLF [Q17V]
The protein stability index of the first is lower: 3.36 for the first, 3.4 for the second.

Going from YPHCTGISQQDPESDSRGQGNGLF [Q17R] to YPHCTGISQQDPESDSIGQGNGLF [Q17I], the protein stability index falls from 3.71 to 3.42.

Going from YPHCTGISQQDPESDSLGQGNGLF [Q17L] to YPHCTGISQQDPESDSAGQGNGLF [Q17A], the protein stability index rises from 2.96 to 3.88.

Compared with YPHCTGISQQDPESDSCGQGNGLF [Q17C], YPHCTGISQQDPESDSWGQGNGLF [Q17W] is lower in protein stability index: 3.39 for the first, 2.97 for the second.

First: YPHCTGISQQDPESDSQGQGNGMF [L23M]
Second: YPHCTGISQQDPESDSQGQGNGKF [L23K]
The protein stability index of the first is lower: 4.21 for the first, 4.76 for the second.

First: YPHCTGISQQDPESDSQGQGNGIF [L23I]
Second: YPHCTGISQQDPESDSQGQGNGCF [L23C]
The protein stability index of the first is lower: 3.97 for the first, 4.62 for the second.

Going from YPHCTGISQQDPESDSQGQGNGGF [L23G] to YPHCTGISQQDPESDSQGQGNGDF [L23D], the protein stability index falls from 4.99 to 4.93.

Going from YPHCTGISQQDPESDSQGQGNGHF [L23H] to YPHCTGISQQDPESDSQGQGNGAF [L23A], the protein stability index falls from 4.89 to 4.35.

Going from YPHCTGISQQDPESDSQGQGNGFF [L23F] to YPHCTGISQQDPESDSQGQGNGEF [L23E], the protein stability index rises from 3.15 to 5.27.
